Results reported in patent EP0910659B1, “ANTIBODIES AGAINST A COMPLEX OF CD4 AND A CHEMOKINE RECEPTOR DOMAIN, AND THEIR USE AGAINST HIV INFECTIONS” (United Biomedical, Inc., priority 1996, dated 1997).

How the values were obtained:
[1] = target: rsCD4 preincubated with CC-CKR5 domain 3 peptide p2047a (human) (UniProt P51681); experiment: ELISA, rsCD4/CC-CKR5-D3 coated wells
[2] = target: recombinant soluble CD4 (rsCD4) (human); experiment: rsCD4 ELISA
[3] = target: CD4 on the surface of CD4-expressing cells (host cell antigen complex comprising CD4) (human); experiment: HPB-ALL cells, biotinylated B4 1:1000 + FITC-avidin, no competitor
[4] = target: rsCD4 preincubated with CC-CKR5 domain 3 peptide p2047a (human) (UniProt P51681); experiment: ratio of the rsCD4 IC50 values of the two ELISA inhibition assays
[5] = target: recombinant soluble CD4 (rsCD4) (human); experiment: rsCD4 ELISA, purified B4 2 µg/mL, no competitor
[6] = target: recombinant soluble CD4 (rsCD4) (human); experiment: competition ELISA, rsCD4 wells pretreated with p1624a; MAb 50 µg/mL; competitor B4-HRP 50 µg/mL
[7] = target: CD4 on the surface of CD4-expressing cells (host cell antigen complex comprising CD4) (human); experiment: indirect immunofluorescence, HPB-ALL cells
[8] = target: CD4 on the surface of CD4-expressing cells (host cell antigen complex comprising CD4) (human); experiment: HPB-ALL cells, biotinylated B4 0.71 µg/mL, no competitor
[9] = target: rsCD4 preincubated with CC-CKR2b domain 3 peptide p2088a (human) (UniProt P41597); experiment: ELISA, rsCD4 0.25 µg/mL preincubated with peptide, B4 0.1 µg/mL; against rsCD4 alone
[10] = target: rsCD4 preincubated with CC-CKR3 domain 4 peptide p2082a (human) (UniProt P51677); experiment: as above
[11] = target: rsCD4 preincubated with CC-CKR2b domain 2 peptide p2087a (human) (UniProt P41597); experiment: as above
[12] = target: rsCD4 preincubated with CC-CKR5 domain 3 peptide p2047a (human) (UniProt P51681); experiment: as above
[13] = target: recombinant soluble CD4 (rsCD4) (human); experiment: ELISA, rsCD4-coated wells
[14] = target: recombinant soluble CD4 (rsCD4) (human); experiment: direct ELISA, rsCD4 wells pretreated with p1624a; B4-HRP 50 µg/mL, PBS instead of competitor
[15] = target: CD4 on the surface of CD4-expressing cells (host cell antigen complex comprising CD4) (human); experiment: cell-based or functional assay
[16] = target: CD4 on the surface of CD4-expressing cells (host cell antigen complex comprising CD4) (human); experiment: indirect immunofluorescence, HPB-ALL cells pre-incubated with gp120 (competitor)
[17] = target: CD4 on the surface of CD4-expressing cells (host cell antigen complex comprising CD4) (human); experiment: HPB-ALL cells pre-incubated with MAb 50 µg/mL, then gp120-FITC (competitor)
[18] = target: CD4 on the surface of CD4-expressing cells (host cell antigen complex comprising CD4) (human); experiment: HPB-ALL cells pre-incubated with MAb 10 µg/mL; competitor biotinylated B4
[19] = target: CD4 on the surface of CD4-expressing cells (host cell antigen complex comprising CD4) (human); experiment: SUP-T cells, biotinylated B4, no competitor

Chain of rsCD4 preincubated with CC-CKR5 domain 3 peptide p2047a (human) (P51681 168-199, form in doubt): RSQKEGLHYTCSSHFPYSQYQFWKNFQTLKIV
Chain of rsCD4 preincubated with CC-CKR2b domain 3 peptide p2088a (human) (P41597 182-207, form in doubt): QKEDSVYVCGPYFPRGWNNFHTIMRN

## monoclonal antibody B4
[1]
  endpoint binding concentration (OD492nm reading of 1.0): 0.1 µg/mL
[2]
  A492 nm reactivity to rsCD4: 1.42 A492
[3]
  % Positive cells: > 95%
  Intensity of staining: 2
[4]
  fold improvement of affinity over MAb B4 for rsCD4 alone: 15 fold
[5]
  A492 nm: 0.679 A492
[6]
  % Inhibition: 80%
  A492 nm (B4-HRP signal): 0.338 A492
[7]
  % of HPB-ALL cells reactive: > 90%
[8]
  % Positive cells: > 95%
[9]
  degree of enhancement of MAb B4-rsCD4 binding (grade 0 to 8): > 4 +
[10]
  degree of enhancement of MAb B4-rsCD4 binding (grade 0 to 8): 8 +
[11]
  degree of enhancement of MAb B4-rsCD4 binding (grade 0 to 8): > 4 +
[12]
  degree of enhancement of MAb B4-rsCD4 binding (grade 0 to 8): 5 +
[13]
  endpoint binding concentration (OD492nm reading of 1.0): 2 µg/mL
[14]
  A492 nm: 1.66 A492
[15]
  50% Inhbt., HIV-1 primary isolate 23135, MT-2 Microplaque Neutralization Assay: 0.21 µg/mL
  50% Inhbt., HIV-1 primary isolate BR014, MT-2 Microplaque Neutralization Assay: 0.19 µg/mL
  50% end point for neutralization of HIV-1 primary isolate (23135): 0.21 µg/mL
  90% Inhbt., HIV-1 primary isolate 23135, MT-2 Microplaque Neutralization Assay: 1.54 µg/mL
  90% Inhbt., HIV-1 primary isolate BR014, MT-2 Microplaque Neutralization Assay: 1.63 µg/mL
  HIV-1 DH-12 (chimp PBL-grown), PBMC Infection Reduction Assay: 3 logs killed
  HIV-1 DH-12, 50% Inhib, MT-2 Microplaque Assay: 0.33 µg/mL
  HIV-1 DH-12, 90% Inhib, MT-2 Microplaque Assay: 2.1 µg/mL
  HIV-2 287, PBMC Infectivity Reduction Assay with MAb B4 at 10 µg/mL: 1.5 logs killed
  HIV-2 ROD, 50%, MT2 Microplaque Neutralization Assay: 0.7 µg/mL
  HIV-2 ROD, 90%, MT2 Microplaque Neutralization Assay: 8.5 µg/mL
  SHIV 89.6, 50%, p27 Antigen Neutralization Assay: 0.088 µg/mL
  SHIV IIIB, 50%, p27 Antigen Neutralization Assay: 0.679 µg/mL
  SIV239, 50%, p27 Antigen Neutralization Assay: 1.3 µg/mL
  SIV251 (huPBMC), 80%, p27 Antigen Neutralization Assay: 1 µg/mL
  SIV251, 50%, p27 Antigen Neutralization Assay: 2 µg/mL
[16]
  % of cells reactive after prior binding of gp120: > 90%
[17]
  % of cells stained by gp120-FITC after prior binding with MAb: 0%
[18]
  % Positive cells (biotinylated B4 staining): 0%
  Intensity of staining (biotinylated B4): 0
[19]
  positive rate: 95%
